Results on two molecules are retold here after US10358467B2, “Therapeutic targets for cancer progression” (The Regents of the University of California, priority 2015, dated 2019).

The test system of one data set is Akt. The data set can be described thus: Akt phosphorylation (pAkt S473) immunoblot in HeLa cells. The class given is cell-based. To be noted: 10 μM, 6 h, DAPLE-depleted HeLa cells transfected with myc-DAPLE WT. The method, then:
For immunoblotting, protein samples were separated by SDS-PAGE and transferred to PVDF membranes (Millipore). Membranes were blocked with PBS supplemented with 5% nonfat milk (or with 5% BSA when probing for phosphorylated proteins) before incubation with primary antibodies. Infrared imaging with two-color detection and band densitometry quantifications were performed using a Li-Cor Odyssey imaging system exactly as done previously (Garcia-Marcos et al, 2011a; Garcia-Marcos et al, 2010; Garcia-Marcos et al, 2012; Garcia-Marcos et al, 2011b; Ghosh et al, 2010). All Odyssey images were processed using Image J software (NIH) and assembled into figure panels using Photoshop and Illustrator software (Adobe).
(A western blot detects proteins with antibodies after separation by electrophoresis.)

A further data set deals with Rac1. The data set can be described thus: Rac1 activity pulldown assay with GST-PBD in HeLa cells. The class given is cell-based. To be noted: 10 μM, 6 h, DAPLE-depleted HeLa cells transfected with myc-DAPLE WT. Here is the method: Rac1 activity in HeLa cells lines was monitored using GST-tagged PAK1-binding domain (PBD; pGEX-PBD) as described previously (Benard & Bokoch, 2002). Briefly, Escherichia coli strain BL21 bacteria transformed with pGEX-PBD were grown at 37° C. and GST-PBD expression was induced at OD600 with 1 mM IPTG for 3 h at 37° C. with shaking. Bacterial lysates were prepared as described above in protein purification section, cleared of debris by centrifugation and subsequently aliquots of lysates were stored at −80° C. until use. Aliquots of bacterial lysates were thawed, cleared of precipitated proteins by centrifugation at 14,000×g for 20 min, and the cleared supernatant was subsequently incubated with glutathione beads overnight at 4° C. with constant tumbling to prepare purified bead-bound GST-PBD freshly for each assay.
To analyze the role of DAPLE in regulation of Rac1 activity HeLa cells were used. For assays done on cells at steady-state, cells were maintained overnight in a media containing 2% or 0.2% FBS prior to lysis. […]

Data set [1] deals with T1, His-Gαi3 (Rattus norvegicus, UniProt P08753).
T1 construct: His; made in house; host or cells: E. coli BL21 (DE3)
Nature of the data set: GTPγS binding assay. Type of data set: biochemical. To be noted: 0-2 μM, 15 min. Here is the method: GTPγS binding was measured using a filter binding method as described previously (Garcia-Marcos et al, 2010; Garcia-Marcos et al, 2011b). His-Gαi3 (100 nM) was preincubated with different concentrations of His-DAPLE-CT (aa 1650-2028) for 15 min at 30° C. in assay buffer [20 mM Na-HEPES, pH 8, 100 mM NaCl, 1 mM EDTA, 25 mM MgCl2, 1 mM DTT, 0.05% (w:v) C12E10]. Reactions were initiated at 30° C. by adding an equal volume of assay buffer containing 1 μM [^35S] GTPγS (˜50 c.p.m/fmol). Duplicate aliquots (25 μl) were removed at different time points, and binding of radioactive nucleotide was stopped by addition of 3 ml, ice-cold wash buffer (20 mM Tris-HCl, pH 8.0, 100 mM NaCl, 25 mM MgCl2). The quenched reactions were rapidly passed through BA-85 nitrocellulose filters (GE Healthcare) and washed with 4 ml wash buffer. Filters were dried and subjected to liquid scintillation counting. To determine the specific nucleotide binding, the background [^35S]GTPγS detected in the absence of G protein was subtracted from each reaction and data expressed as percentage of the [^35S] GTPγS bound by His-Gαi3 in the absence of His-DAPLE-CT.
On the technique in general: GTPγS resists hydrolysis and so accumulates on activated G proteins.

The next data set addresses T2, Gαi1 (Rattus norvegicus, UniProt P10824).
T2 construct: made in house; host or cells: E. coli BL21 (DE3)
Nature of the data set: GST pulldown of His-DAPLE-CT with GST-Gαi1. Type of data set: binding.

The next data set addresses T3, Gαo (Rattus norvegicus, UniProt P59215).
T3 construct: made in house; host or cells: E. coli BL21 (DE3)
Nature of the data set: GST pulldown of His-DAPLE-CT with GST-Gαo. The class given is binding.

Another data set addresses T4, Gαi2 (Rattus norvegicus, UniProt P04897).
T4 construct: made in house; host or cells: E. coli BL21 (DE3)
The data set can be described thus: GST pulldown of His-DAPLE-CT with GST-Gαi2. The class given is binding. The conditions noted are these: compared to Gαi1 and Gαi3.

Another data set addresses T5, Gαi3 (Rattus norvegicus, UniProt P08753).
T5 construct: made in house; host or cells: E. coli BL21 (DE3)
The data set can be described thus: GST pulldown of His-DAPLE-CT with GST-Gαi3. Type of data set: binding. Here is the method:
Purified GST-Gαi3 or GST alone (5 μg) were immobilized on glutathione-Sepharose beads and incubated with binding buffer [50 mM Tris-HCl (pH 7.4), 100 mM NaCl, 0.4% (v:v) Nonidet P-40, 10 mM MgCl2, 5 mM EDTA, 30 μM GDP, 2 mM DTT, protease inhibitor mixture] for 90 min at room temperature as described before (Garcia-Marcos et al, 2011a; Ghosh et al, 2010; Ghosh et al, 2008; Lin et al, 2011). Lysates (˜250 μg) of Cos7 cells expressing appropriate myc-DAPLE constructs or purified His-DAPLE-CT (aa 1650-2028) protein (3 μg) were added to each tube, and binding reactions were carried out for 4 h at 4° C. with constant tumbling in binding buffer [50 mM Tris-HCl (pH 7.4), 100 mM NaCl, 0.4% (v:v) Nonidet P-40, 10 mM MgCl2, 5 mM EDTA, 30 μM GDP, 2 mM DTT]. Beads were washed (4×) with 1 mL of wash buffer [4.3 mM Na2HPO4, 1.4 mM KH2PO4 (pH 7.4), 137 mM NaCl, 2.7 mM KCl, 0.1% (v:v) Tween 20, 10 mM MgCl2, 5 mM EDTA, 30 μM GDP, 2 mM DTT] and boiled in Laemmli's sample buffer. In some experiments the ‘active’ conformation of the G protein was stabilized by replacing GDP in the binding and wash buffers with 30 μM GTPγS or a mixture of 30 μM GDP/30 μM AlCl3/10 mM NaF. Immunoblot quantification was performed by infrared imaging following the manufacturer's protocols using an Odyssey imaging system (Li-Cor Biosciences).

Data set [2] deals with T6, GST-Gαi3·Gβγ preformed complexes (Rattus norvegicus, UniProt P08753).
T6 construct: made in house; host or cells: E. coli BL21 (DE3) for GST-Gαi3; Gβγ endogenous from HEK293T lysate
The data set can be described thus: Gβγ displacement assay. Type of data set: binding. To be noted: 0.05-1 μM WT or 1 μM F1675A. Here is the method: This assay was performed as described previously (Garcia-Marcos et al, 2009). Briefly, GST alone or GST-Gαi3 proteins immobilized on glutathione-agarose beads were incubated overnight at 4° C. with HEK293T cell lysates in binding buffer [50 mM Tris-HCl, pH 7.4, 100 mM NaCl, 0.4% (v:v) NP-40, 10 mM MgCl2, 5 mM EDTA, 2 mM DTT, protease inhibitor cocktail supplemented with 30 μM GDP]. Unbound Gβγ-subunits were washed twice with the same buffer and proteins bound to the glutathione-agarose beads divided into equal aliquots containing ˜5 μg (˜0.4 μM) GST-fusion proteins. Aliquots were incubated with increasing concentrations (0.05-1 μM) of purified His-DAPLE-CT (1650-2028) wild-type or 1 μM His-DAPLE-CT F1675A in binding buffer supplemented with GDP (˜200 μl) for 5 h at 4° C. Glutathione-agarose beads were washed and bound proteins eluted by boiling in Laemmli sample buffer and separated by SDS-PAGE.

The next data set deals with T7, GST-FZD7R-CT (Homo sapiens, UniProt O75084).
T7 construct: the GST-tagged cytoplasmic tail of FZD7R; made in house; host or cells: bacteria (E. coli BL21 (DE3)); plasmid a gift of R. Yao
The data set can be described thus: GST-FZD7-CT pulldown of His-Gαi3. Type of data set: binding. The conditions noted are these: His-Gαi3 preloaded with GDP, in the presence of DAPLE-CT. The method, then: GST-FZD7-CT and GST-PBD constructs were immobilized on glutathione-Sepharose beads directly from bacterial lysates by overnight incubation at 4° C. with constant tumbling. Next morning, GST-FZD7-CT immobilized on glutathione beads were washed and subsequently incubated with His-tagged DAPLE-CT or Gαi3 proteins at 4° C. with constant tumbling. Washes and immunoblotting were performed as previously.

Data set [3] deals with T1, His-Gαi3. The data set can be described thus: Steady-state GTPase assay. Type of data set: biochemical. To be noted: in vitro assays. Here is the method:
Under the experimental conditions of steady-state GTPase assays, GTP hydrolysis occurs as a two-step reaction, i.e., 1) GDP is released from the G protein and exchanged for GTP, and 2) the GTP loaded is hydrolyzed. Nucleotide exchange is the rate limiting step in this process because it is ˜50-100 times slower than GTP hydrolysis by Gαi subunits (Mukhopadhyay & Ross, 2002). Thus, the steady-state GTPase activity reflects the rate of nucleotide exchange, and was performed as described previously (Garcia-Marcos et al, 2010; Garcia-Marcos et al, 2012; Garcia-Marcos et al, 2011b). Briefly, His-Gαi3 (100 nM) was preincubated with different concentrations of His-DAPLE-CT (aa 1650-2028) for 15 min at 30° C. in assay buffer [20 mM Na-HEPES, pH 8, 100 mM NaCl, 1 mM EDTA, 2 mM MgCl2, 1 mM DTT, 0.05% (w:v) C12E10]. GTPase reactions were initiated at 30° C. by adding an equal volume of assay buffer containing 1 μM [γ-^32P]GTP (˜50 c.p.m/fmol). […] Samples were then centrifuged for 10 min at 10,000×g, and 500 μl of the resultant supernatant were scintillation counted to quantify released [^32P]Pi. For the time course experiments, data was expressed as raw c.p.m. For the dose-dependence curve experiments, the background [^32P]Pi detected at 15 min in the absence of G protein was subtracted from each reaction and data expressed as percentage of the Pi produced by His-Gαi3 in the absence of His-DAPLE-CT.

T4 sequence (P04897 whole entry): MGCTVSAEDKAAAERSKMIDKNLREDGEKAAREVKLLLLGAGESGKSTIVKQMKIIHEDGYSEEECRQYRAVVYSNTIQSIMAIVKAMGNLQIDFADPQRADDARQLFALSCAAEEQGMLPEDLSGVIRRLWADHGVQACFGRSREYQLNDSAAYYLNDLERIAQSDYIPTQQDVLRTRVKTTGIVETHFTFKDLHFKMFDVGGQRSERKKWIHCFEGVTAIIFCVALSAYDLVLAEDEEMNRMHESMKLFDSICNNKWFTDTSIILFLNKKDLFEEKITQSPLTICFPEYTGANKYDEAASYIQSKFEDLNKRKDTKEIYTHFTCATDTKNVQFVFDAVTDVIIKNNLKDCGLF
T3 sequence (P59215 whole entry): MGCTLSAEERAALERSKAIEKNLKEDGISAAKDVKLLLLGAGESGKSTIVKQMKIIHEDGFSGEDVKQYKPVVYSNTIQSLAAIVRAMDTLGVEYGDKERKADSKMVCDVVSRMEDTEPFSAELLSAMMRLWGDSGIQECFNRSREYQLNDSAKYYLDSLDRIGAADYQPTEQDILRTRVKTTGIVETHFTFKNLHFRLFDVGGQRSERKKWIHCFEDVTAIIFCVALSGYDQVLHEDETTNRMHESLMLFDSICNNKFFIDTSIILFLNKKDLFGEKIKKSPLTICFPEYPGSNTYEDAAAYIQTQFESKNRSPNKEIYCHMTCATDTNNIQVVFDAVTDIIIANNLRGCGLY
T2 sequence (P10824 whole entry): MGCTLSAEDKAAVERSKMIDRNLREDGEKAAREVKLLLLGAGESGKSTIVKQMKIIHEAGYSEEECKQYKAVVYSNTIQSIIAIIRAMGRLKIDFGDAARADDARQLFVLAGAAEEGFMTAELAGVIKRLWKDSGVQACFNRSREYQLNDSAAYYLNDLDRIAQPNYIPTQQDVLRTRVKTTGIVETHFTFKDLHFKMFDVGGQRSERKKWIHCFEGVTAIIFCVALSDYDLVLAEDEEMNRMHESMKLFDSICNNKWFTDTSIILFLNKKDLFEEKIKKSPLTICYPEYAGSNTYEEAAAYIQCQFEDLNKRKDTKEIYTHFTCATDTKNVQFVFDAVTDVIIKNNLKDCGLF

As to `O=C1OC2(c3ccccc31)c1ccc(O)c(O)c1Oc1c2ccc(O)c1O` [Gallein], the Akt activity result in the data set on Akt was “effectively inhibited”. Besides, the Rac1 activity result in the data set on Rac1 was “effectively inhibited”.

B1: His-DAPLE-CT: purified His-tagged DAPLE C-terminus (aa 1650-2028, containing the GBA motif) (protein, listed as Homo sapiens)
chain: GTAPPYVGVRPCSASPSSEMVTLEEFLEESNRSSPTHDTPSCRDDLLSDYFRKASDPPAIGGQPGPPAKKEGAKMPTNFVAPTVKMAAPTSEGRPLKPGQYVKPNFRLTEAEAPPSVAPRQAQPPQSLSLGRPRQAPVPPASHAPASRSASLSRAFSLASADLLRASGPEACKQESPQKLGAPEALGGRETGSHTLQSPAPPSSHSLARERTPLVGKAGSSCQGPGPRSRPLDTRRFSLAPPKEERLAPLHQSATAPAIATAGAGAAAAGSGSNSQLLHFSPAAAPAARTKPKAPPRSGEVATITPVRAGLSLSEGDGVPGQGCSEGLPAKSPGRSPDLAPHLGRALEDCSRGSVSKSSPASPEPGGDPQTVWYEYGCV
modifications: His tag
B1: the “initial rate of nucleotide (GTPγS) binding by His-Gαi3” value with His-Gαi3 [1] is “increased”. In addition, the “binding to Gαi1” value in the data set with Gαi1 is “interacts”. Further, in the data set with Gαo, the “binding to Gαo” value is “not with Gαo”. The “binding to Gαi2” value with Gαi2 is reported as “partially reduced”. Besides, the “binding to Gαi3” value with Gαi3 was “interacts”. For the same molecule, the “displacement of Gβγ from pre-assembled complex with GST-Gαi3” value in data set [2] was “displaced”. Further, in the data set with GST-FZD7R-CT, the “increase of Gαi3 binding to GST-FZD7R-CT” value is recorded as around 5 fold. Besides, in the data set with His-Gαi3 [3], the “GEF activity, activation of nucleotide exchange” value is on record as 2.5-3 fold.
